From PMC6737378, “Molecular Basis for ATP-Hydrolysis-Driven DNA Translocation by the CMG Helicase of the Eukaryotic Replisome” (Cell Reports, 2019)

B1: Saccharomyces cerevisiae Ctf4 trimer (natural protein, S. cerevisiae, UniProt Q01454 1-927, looked up)
chain: MVSVIDKLVFDFGGKTLVSLAPDNNTLCVANKNGLTKILKTNNPEEEPETLDSSKLVSSIKCYSNSHFLMTTMQGDALRYNIDSSQEELLARFALPLRDCCVIHSGKMAVFGGDDLELILLELDDETHKKHAIKIDEQVSQISYNSQMNILAVSMINGKVQIFSLTSTIPNKVHELNDYIVANSYDDTHRDKILSNMMDDIDKDNDNDLSETADPDENNVADPEFCAANRICTRVAWHPKGLHFALPCADDTVKIFSIKGYSLQKTLSTNLSSTKAHFIDLQFDPLRGTYIAAVDLNNKLTVWNWETSEIHYTREFKRKITNIAWKIQADSKTLDLVLGTWSGSIAIVQNLAESVVSNIPDQSVAESSTKHGLFVDSESDLENLEGNDDINKSDKLFSDITQEANAEDVFTQTHDGPSGLSEKRKYNFEDEEDFIDDDDGAGYISGKKPHNEHSYSRVHKTHSFPISLANTGKFRYMPFSPAGTPFGFTDRRYLTMNEVGYVSTVKNSEQYSITVSFFDVGRFREYHFEDLFGYDLCFLNEKGTLFGQSKTGQIQYRPHDSIHSNWTKIIPLQAGERITSVAATPVRVIVGTSLGYFRSFNQFGVPFAVEKTSPIVALTAQNYRVFSVHYSQFHGLSYSLSELGTSSKRYYKRECPLPMSLPNINSDMKKDANLDYYNFNPMGIKSLFFSSYGDPCIFGSDNTLLLLSKWRSPEESKWLPILDSNMEIWKMSGGKETTDIHVWPLALAYDTLNCILVKGKHIWPEFPLPLPSEMEIRMPVFVKSKLLEENKAILNKKNEIGADTEAEEGEEDKEIQIPVSMAAEEEYLRSKVLSELLTDTLENDGEMYGNENEVLAALNGAYDKALLRLFASACSDQNVEKALSLAHELKQDRALTAAVKISERAELPSLVKKINNIREARYEQQLK
notes: Ctf4, S. cerevisiae, expression plasmids of Gambus et al., 2009; Called a trimer in the methods; Construct in Gambus et al., 2009; also called ScCtf4; source: E. coli BL21 (DE3), purified (Ni-NTA, MonoQ, Superdex 200)
B2: Saccharomyces cerevisiae Csm3-Tof1 complex (complex, S. cerevisiae)
chain 1: MDQDFDSLLLGFNDSDSVQKDPTVPNGLDGSVVDPTIADPTAITARKRRPQVKLTAEKLLSDKGLPYVLKNAHKRIRISSKKNSYDNLSNIIQFYQLWAHELFPKAKFKDFMKICQTVGKTDPVLREYRVSLFRDEMGMSFDVGTRETGQDLERQSPMVEEHVTSAEERPIVADSFAQDKRNVNNVDYDNDEDDDIYHLSYRNRRGRVLDERGNNETVLNNVVPPKEDLDALLKTFRVQGPVGLEENEKKLLLGWLDAHRKMEKGSMTEEDVQLIQSLEEWEMNDIEGQHTHYDLLPGGDEFGVDQDELDAMKEMGF
chain 2: MSADLQQGTTNAADFSLTVLRARIALLATAIGGPDYTSQIDPPPYKLGDDCLACLKDLKRWFKLVDDQQKRWDVAMAVAEYRILTDDLLPILIDWENKCSLAAKLAKNNPDHEEFRNKAYYDKIALNCLQLLVLMTWPLIVTEQSSSNQITLYGELKKHQLVYKKTILSMESGKVLRAAIRLALDVIKIDRLSRTPRDNMVLKLVLNFFRNVIAIEPGEFTINTKKSMPKKGITSIDTLPPNVSMDDISLNTVISSFHKNKVFGFLLTLTSSLSKEFDQDFINIPLLEIMFYFTKDVNQELLFPRQFETGTHSKVVNKNESSSANNIVTSAGFELSKLLQKEHQMRKNVIKHTSARHSRFGGLLSIQTPDKTRLTVSGSQALVDEKIALQKLDDSKKWNKRIIKKHQSVAAEGLPNSLLNSQTGKAIFFTESNGKHFKEFINNFIDSGFNILLHSVTNYFTTEQDRMVTLEQVEYLLFFAWFVKYQLLRSKIDNSADIKQVSEALKEVTFILVSSLLRSAYDLKNWTVTHAGMIAFNELLNLVSRTKAAQEEDSTDIEFIVSRLFSDERIQLLSNLPKIGSKYSLQFMKSCIELTHSVLKVLEQYSDDKTLVIEGKSRRQKKFNISEGDITKLIEEENVDRDEALDILTSSLRSIEVNFQKVQANYMTEPVIETYINFLERFRELEDDSIKKVFSFFHRVFVQAKEQALLFRFDLIILLREMLSPDGLDRMSRSRKYVSQFSDYFLARLKKRLKKSPAWFVGLLFPPLHNSEVGFYQRYGEYNVLNNESMYAAPASQFKPIPDEEALPPSILLDMKYGVLVSTLLDDGKTELLDQLLKHITHTLDIFKSWLTVNVNAGKETVNPPNEYFTLTGVLNNDPIFKDKDYRALLLLIGYSIPRKINEPCFLPGTVEVSDLTVSCELVKKYLSTPFETPNGLPSSSYLLRVRSEKDSFSHNEQDGWEGDDDYDYNDPYIVPDDQILSKSDAAYFKDLDNNASDKLKGTKFSKGIARSKKKDKRKRRKGEAKTNLPMFGDQDDERPQTVRERHGVFSKEFISDSEDDEDLMNPIFFENETYMRWLLDKNNGQLTEDRYIQFAKFAAERMNNGGVVTGDYTSLFGGSIPSIESIRATESSSFAPDKSLISLASHVASEMSIFDVNNNNNNQLSDDDVNSESRNSLGSSQPSNSQNMFQSEVYSRKESTKRSLEASAADESDEDEEAIRLFGKKSRVVLSQGDSDD
notes: Csm3, S. cerevisiae, from strain yAE48 (Yeeles et al., 2017); Tof1, S. cerevisiae, from strain yAE48 (Yeeles et al., 2017); Construct in Yeeles et al., 2017; also called ScCsm3/Tof1
B3: Saccharomyces cerevisiae Mrc1 (natural protein, S. cerevisiae, UniProt P25588 1-1096, looked up)
chain: MDDALHALSSLTAKKRTTTYKKVAVPILDENDNTNGNGPNDIDNPPELTGNGFLFANATLNRVKNRLEGKKAPEQNHNNGKDRSENSLPTQLISNLYDGGEELEKSEVKDNSYSEKNVSSSFTQTQRIPVSIQQDKVFNVPIHSVNDGKPTQLIKEDGLVNETSQALKTPLTTGRPGATQRIDSSGATSQTQPIKSIEPQSQIITTSSNHSNALSPKIPIIPTELIGTSPLFQSIQNRGPDTQMDVPPQTAHDEDKTQAIGIPQATHQEQKTQIDTVAQTLQDEVPHTLKIREIQSELASEDSKREKARNVEYKKPQKPIPTKKFFSKESFLADFDDSSSNEDDDIKLENAHPKPVQNDDELHENKSVELNLTDETRINEKRVPLLSSYANNLKREIDSSKCITLDLDSDSDEYGDDDMDSIKLSKDESVLPISQLSKATILNLKARLSKQNQKLSQRPNKSKDPKVDHNVLLNTLRKASRKQILDHQKEVIETKGLKLEDMAKEKEIVENLLEQEILRNKRIRQKEKRREKLEENDFQLNAHDSGSDSGSESSGFALSGNEIADYESSGSENDNRRESDSEKEDDEIILKQKKSHHVKHIINESDSDTEVEAKPKEKADESLPKRIAINLGHYGDNIGEDTDKFQETNVLDTQNIEEVMAERNTIENEVKDDVYVNEEADEAIRRQLIDKEKLQLKQKEKEHEAKIKELKKRGVTNFFEMEAEESEDEWHGIGGADGEGSDDYDSDLEKMIDDYSKNNFNPHEIREMLAAENKEMDIKMINKILYDIKNGGFRNKRAKNSLELELSDDDEDDVLQQYRLKRRELMRKRRLEIGDDAKLVKNPKSSAFFESMVEDIIEYKNPFGAEEEYNLDITSTATDLDTQDNSINVGDNTGNNEQKPVDQKNKKVIISEDFVQKSLSFLKSNNYEDFETDKELSRIQHGNDEAIEDLYTLKQNSSIKSFTNSQTDSTTSKTVNTIIDLEKRPEDEDEVENGDTSLVGVFKHPSIIKSFASRTDINDKFKEGNKTVKILKSYKTVGSSKASITYMGKTRKLIAPKRKTEGSHRYHHDHHNKKMKMKTKTKSNKLFESGQDSFDN
notes: Mrc1, S. cerevisiae, from strain yJY32 (Yeeles et al., 2017); Construct in Yeeles et al., 2017; also called ScMrc1; FLAG-Mrc1; source: S. cerevisiae strain yJY32, purified (anti-FLAG M2 agarose, MonoQ)

Key:
[1] = tested on: T1, Drosophila CMG (Cdc45-MCM-GINS helicase; DmCMG); test: cryo-EM structure; type: binding, Drosophila melanogaster; conditions: DNA fork bound, 5 mM ATP elution buffer, 2 mM Mg(OAc)2, pH 7.6; bipartite MCM inter-protomer ATPase sites; states 1A, 1B, 2A, 2B at 3.70-4.46 Å; ADP at loosened interfaces, arising during ATP turnover
T1 construct: gene Mcm2; with Cell division control protein 45; DNA replication complex GINS protein PSF1; DNA replication complex GINS protein PSF2; DNA replication complex GINS protein PSF3; DNA replication complex GINS protein SLD5
From the text: cryo-EM structure on Drosophila CMG (Cdc45-MCM-GINS helicase; DmCMG) | ATP at inter-protomer interfaces is shown in red.

[2] = target: T2, Saccharomyces cerevisiae CMG helicase (Cdc45-MCM-GINS) (S. cerevisiae, UniProt P29469 1-868; P24279 1-971; P30665 1-933; P29496 1-775; P53091 1-1017; P38132 …); test: pull-down + other: negative-stain EM; 250 nM CMG held on Calmodulin Affinity Resin, 500 nM Ctf4 added, 1 mM ATPγS, 30°C; eluted with EDTA/EGTA, cross-linked with 0.01% glutaraldehyde and imaged; conditions: both partners purified
T2 construct: Mcm2, S. cerevisiae, subunit of the CMG from strain yJCZ3 (Zhou et al., 2017); Mcm3, S. cerevisiae, subunit of the CMG from strain yJCZ3; Mcm4, S. cerevisiae, subunit of the CMG from strain yJCZ3; Mcm5, S. cerevisiae, subunit of the CMG from strain yJCZ3; Mcm6, S. cerevisiae, subunit of the CMG from strain yJCZ3; Mcm7, S. cerevisiae, subunit of the CMG from strain yJCZ3; Cdc45, S. cerevisiae, …

[3] = target: T2, Saccharomyces cerevisiae CMG helicase …; test: DNA fork-affinity purification with silver-stained gel and negative-stain EM 2D averaging; desthiobiotin DNA fork on streptavidin magnetic beads; 250 nM CMG mixed with 350 nM Mrc1 + Csm3-Tof1, 2 mM ATPγS, then 80 nM Polε; Protein Binding Buffer, 30°C; eluted with biotin; dropouts without Mrc1 or Csm3-Tof1; parallel experiment without Polε on an M.HpaII-labeled fork; conditions: both partners purified
[4] = target: B2; test: DNA-affinity purification; desthiobiotin fork or blunt duplex DNA on streptavidin magnetic beads; 350 nM Mrc1, 350 nM Csm3-Tof1 or 350 nM MCT pre-incubated on ice; Protein Binding Buffer, 30°C; eluted with biotin; conditions: both partners purified

Molecule: Nc1ncnc2c1ncn2[C@@H]1O[C@H](COP(=O)(O)OP(=O)(O)O)[C@@H](O)[C@H]1O [ADP]
- cryo-EM structure [1]: The C-terminal subunit in the spiral is ADP bound as are the non-engaged seam subunits.

Molecule: B1
- binding result [2]: binds

Molecule: B2
- binding result [3]: binds

Molecule: B3
- binding result [4]: binds
- binding result [3]: binds
